A short description of data set [1]: Biocatalytic conversions with target substrate rac-1 by NHase-CFE or cells, chiral HPLC analysis. Type of data set: biochemical. The following applies: for conversion / e.e. for (S): bioconversion of 100 mM rac-1; for conversion [%]: 300 rpm overnight; for eeP [%]: excess of (S); for Conv. [%]: NHase-CFE, overnight.
Data set [2] can be described thus: Substrate stability experiments: decomposition of rac-1 at different pH (Feigl-Anger paper, HPLC). Type of data set: physicochemical. The protocol:
. In addition, the substrate was dissolved in ethanol as control. 100 μL of the rac-1 solutions were pipetted into a 96-well micro titer plate and covered with Feigl-Anger filter paper. Color development was documented by taking pictures (see FIG. 3).
To investigate the velocity of rac-1 decomposition at different pH, rac-1 was dissolved in different buffer, ranging from pH 5 to pH 10, and extracted immediately, after 2 and after 60 min, respectively, with 1 volume ethyl acetate. Extracts were dried over Na2SO4 and the supernatant evaporated using a vacuum centrifuge. The remaining substances (including rac-1) were dissolved in 100 μL of ethanol.
(R)- and (S)-1 were separated by a Chiralpak AD-H using n-heptane and ethanol in a ratio 90:10 as the mobile phase, at a flow rate of 1 mL/min for 8 min. The compounds were detected at 210 nm (DAD). Retention times of (R)- and (S)-1 were 4.2 min and 4.7 min, respectively.

In the case of `CCC(C#N)N1CCCC1` (racemic) [rac-1, 2-(Pyrrolidin-1-yl)butanenitrile], in data set [1], the conversion was determined as 29.3%. Further, the “e.e. for (S)” value in data set [1] amounted to 92.8%. The “Percent (HPLC peak area vs zero value)” value in data set [2] (pH 5, 2 min) stood at 57%; in data set [2] (pH 5, 1 hour), 32%; in data set [2] (pH 6, 2 min), 54%; in data set [2] (pH 6, 1 hour) it was 23%; in data set [2] (pH 6.5, 2 min) it was 47%; in data set [2] (pH 6.5, 1 hour), 22%. The “Percent (HPLC peak area vs zero value)” value in data set [2] (pH 7, 2 min) was 57%; in data set [2] (pH 7, 1 hour), 44%; in data set [2] (pH 7.5, 2 min) it was 66%; in data set [2] (pH 7.5, 1 hour), 50%; in data set [2] (pH 9, 2 min), 83%; in data set [2] (pH 9, 1 hour) it was 87%. Moreover, the “Percent (HPLC peak area vs zero value)” value in data set [2] (pH 10, 2 min) is on record as 78%; in data set [2] (pH 10, 1 hour), 86%.

In the case of `CC[C@@H](C(N)=O)N1CCCC1=O` [compound 4, (S)-2-(2-oxopyrrolidin-1-yl)butane amide, reference compound], in data set [1], the conversion amounted to 51.8% and the “e.e. for (S)” value amounted to 92.1%.

B1: KoNHase: nitrile hydratase from Klebsiella oxytoca (protein, listed as Klebsiella oxytoca)
alpha: MSHKHDHDHTHPPVDIELRVRALESLLQEKGLIDPAALDELIDTYEHKVGPRNGAQVVARAWSDPEYKRRLMENATAAIAELGFSGIQGEDMLVVENTPDVHNVTVCTLCSCYPWPVLGLPPVWYKSAPYRSRIVIDPRGVLAEFGLHIPENKEIRVWDSSAELRYLVLPERPAGTEGWSEAQLSELITRDSMIGTGVVSAP
beta: MNGIHDLGGMHGLGPIPTEENEPYFHHEWERRVFPLFASLFVGGHFNVDEFRHAIERMAPTEYLQSSYYEHWLHAFETLLLAKGAITVEELWGGAKPAPCKPGTPVLTQEMVSMVVSTGGSARVSHDVAPRFRVGDWVRTKNFNPTTHTRLPRYARDKVGRIEIAHGVFITPDTAAHGLGEHPQHVYSVSFTAQALWGEPRPDKVFIDLWDDYLEEA
As for B1, in data set [1], the “enantioselectivity for (S)-2” value came out at 78%. Besides, the “conversion [%]” value in data set [1] (Table 4: 10 mM rac-1, NHase-CFE, 500 μL, pH 7.2, 25° C.) is 5.3%; in data set [1] (Table 5: 10 mM rac-1, NHase-CFE, pH 7.2, 37° C.), 4.4%; in data set [1] (Table 5: 10 mM rac-1, NHase-CFE, pH 7.2, 50° C.), 3.8%. Also, the “eeP [%]” value in data set [1] (Table 5: 37° C., —^a: only (S)-amide was detected) is listed as 83 (S) %; in data set [1] (Table 5: 50° C., —^a: only (S)-amide was detected), 78 (S) %; in data set [1] (Table 6: 10 mM substrate) it was 79 (S) %; in data set [1] (Table 6: 50 mM substrate) it was 79 (S) %; in data set [1] (Table 6: 100 mM substrate), 75 (S) %. In addition, the “Conv. [%]” value stood at 5.3% in data set [1] (Table 6: 10 mM substrate, 25° C., pH 7.2); 6.2% in data set [1] (Table 6: 50 mM substrate, 25° C., pH 7.2); 2.6% in data set [1] (Table 6: 100 mM substrate, 25° C., pH 7.2). The “Enantioselectivity eeP [%]” value in data set [1] (pH 7.2) is reported as 79 (S) %. Also, in data set [1] (time study: 20 mM substrate, CFE, 25° C., pH 7.2), the “enantiomeric excess of the product for (S)-2” value is on record as 81%. For the same molecule, the “activity after cobalt pre-incubation” value (1 or 2 mM CoCl2, 2 h, 25° C.) is given as “lower activity than the control reaction”. Further, the “activity towards methacrylonitrile (MAN) hydrolysis” value (NHase-CFE, 114 mM substrate, pH 7.2, 25° C.) was “high activity”. Further, where the note is “incubated at pH 9 or 9.5, 25° C., then MAN assay”, the “stability after longer incubation at high pH” value is on record as “loses activity with time at pH 9.5”. For the setting “methacrylonitrile hydration, carbonate buffer pH 10”, the “activity at high pH” value is “still active at pH 10”. For the setting “pH 8”, the “thermal stability at 37° C.” value was “seem stable”.

The values above are taken from patent US20230183177A1, “ENANTIOSELECTIVE CHEMO-ENZYMATIC SYNTHESIS OF OPTICALLY ACTIVE AMINO AMIDE COMPOUNDS” (priority 2020, published 2023).
